Like-named read-outs stand apart in the source and are kept apart here. Positions of bridges follow the written chain, without caps; N, C: chain ends. Non-standard residues stand in square brackets, D forms with d. Primed or numbered codes have the meaning given here. No end group written: not given here. *: point of attachment. FITC = O=C1OC2(c3ccc(O)cc3Oc3cc(O)ccc32)c2ccc(NC(=S)*)cc21; trimesoyl″ = benzene-1,3,5-tricarbonyl scaffold; FITC′ = fluorescein isothiocyanate, on Lys NZ; Phe(4-Cl) = N[C@@H](Cc1ccc(Cl)cc1)C(=O)O; Phe(4-F) = N[C@@H](Cc1ccc(F)cc1)C(=O)O; Phg = N[C@H](C(=O)O)c1ccccc1; Nle = CCCC[C@H](N)C(=O)O; Orn = NCCC[C@H](N)C(=O)O; Abu = CC[C@H](N)C(=O)O; Dap = NC[C@H](N)C(=O)O
B1: Asn-Asn-Asn-Lys(FITC)-labeled anticachexin C1 (peptide)
peptide: [Phg]Y[dA]KY[dF]G[dK]H[Dap]NNNK(FITC′)-NH2
modifications: bridge (positions not given here) via trimesoyl″; not fully specified (N-terminus, bridges); also: feature: K4 labeled with FITC
notes: also called C1-NNNK(FITC); NNNK-tagged anticachexin C1
B2: C1-4 (peptide)
peptide: VY[dA]KY[dF]G[dK]H[Dap]K(FITC)-NH2
modifications: linker (positions not given here) via trimesoyl″; not fully specified (bridges)
B3: C1-15 (peptide)
peptide: VY[dN]KY[dF]G[dK]H[Dap]K(FITC′)-NH2
modifications: linker (positions not given here) via trimesoyl″; not fully specified (N-terminus, bridges)
B4: C1-17 (peptide)
peptide: FY[dN]KY[dF]G[dK]H[Dap]K(FITC′)-NH2
modifications: linker (positions not given here) via trimesoyl″; not fully specified (N-terminus, bridges)
B5: C1-14 (peptide)
peptide: VY[dT]KY[dF]G[dK]H[Dap]K(FITC′)-NH2
modifications: linker (positions not given here) via trimesoyl″; not fully specified (N-terminus, bridges)
B6: C1-16 (peptide)
peptide: LY[dN]KY[dF]G[dK]H[Dap]K(FITC′)-NH2
modifications: linker (positions not given here) via trimesoyl″; not fully specified (N-terminus, bridges)
B7: C1-2 (peptide)
peptide: AY[dA]KY[dF]G[dK]H[Dap]K(FITC′)-NH2
modifications: linker (positions not given here) via trimesoyl″; not fully specified (N-terminus, bridges)
B8: C1-13 (peptide)
peptide: VY[dS]KY[dF]G[dK]H[Dap]K(FITC′)-NH2
modifications: linker (positions not given here) via trimesoyl″; not fully specified (N-terminus, bridges)
B9: C1-19 (peptide)
peptide: [Nle]YSKY[dF]G[dK]H[Dap]K(FITC′)-NH2
modifications: linker (positions not given here) via trimesoyl″; not fully specified (N-terminus, bridges)
notes: L-Ser at position 3
B10: C1-20 (peptide)
peptide: [Nle]Y[dS][Orn]Y[dF]G[dK]H[Dap]K(FITC′)-NH2
modifications: linker (positions not given here) via trimesoyl″; not fully specified (N-terminus, bridges)
B11: C1-23 (peptide)
peptide: [Nle][Phe(4-F)][dS]KY[dF]G[dK]H[Dap]K(FITC′)-NH2
modifications: bridge (positions not given here) via trimesoyl″; not fully specified (N-terminus, bridges)
B12: C1-40 (peptide)
peptide: [Nle][Phe(4-Cl)][dS]KY[dH]G[dK]H[Dap]K(FITC)-NH2
modifications: linker N-4-10 via trimesoyl″
B13: C1-37 (peptide)
peptide: [Nle][Phe(4-F)][dS]KY[dQ]G[dK]H[Dap]K(FITC)-NH2
modifications: linker N-4-10 via trimesoyl″
B14: C1-39 (peptide)
peptide: [Nle][Phe(4-F)][dS]KY[dH]G[dK]H[Dap]K(FITC)-NH2
modifications: linker (positions not given here) via trimesoyl″; not fully specified (bridges)
B15: C1-21 (peptide)
peptide: [Nle]Y[dS][Dap]Y[dF]G[dK]H[Dap]K(FITC′)-NH2
modifications: linker (positions not given here) via trimesoyl″; not fully specified (N-terminus, bridges)
B16: Anticachexin C1, Lys(FITC)-labelled (Table 2) (peptide)
peptide: [Phg]Y[dA]KY[dF]G[dK]H[Dap]K(FITC′)-NH2
modifications: linker (positions not given here) via trimesoyl″; not fully specified (N-terminus, bridges)
B17: C1-32 (peptide)
peptide: [Nle]Y[dS]KY[dQ]G[dK]H[Dap]K(FITC)-NH2
modifications: linker N-4-10 via trimesoyl″
B18: C1-31 (peptide)
peptide: [Nle]Y[dS]KY[dL]G[dK]H[Dap]K(FITC)-NH2
modifications: linker N-4-10 via trimesoyl″
B19: C1-27 (peptide)
peptide: [Nle]L[dS]KY[dF]G[dK]H[Dap]K(FITC)-NH2
modifications: linker N-4-10 via trimesoyl″
B20: C1-26 (peptide)
peptide: [Nle]H[dS]KY[dF]G[dK]H[Dap]K(FITC)-NH2
modifications: linker N-4-10 via trimesoyl″
B21: C1-3 (peptide)
peptide: [Abu]Y[dA]KY[dF]G[dK]H[Dap]K(FITC)-NH2
modifications: linker N-4-10 via trimesoyl″
B22: C1-29 (peptide)
peptide: [Nle]Y[dS]KY[dY]G[dK]H[Dap]K(FITC)-NH2
modifications: linker N-4-10 via trimesoyl″
B23: C1-28 (peptide)
peptide: [Nle]Q[dS]KY[dF]G[dK]H[Dap]K(FITC)-NH2
modifications: linker N-4-10 via trimesoyl″
B24: C1-12 (peptide)
peptide: [Nle]Y[dN]KY[dF]G[dK]H[Dap]K(FITC′)-NH2
modifications: linker (positions not given here) via trimesoyl″; not fully specified (N-terminus, bridges)
B25: C1-41 (peptide)
peptide: [Nle]W[dS]KY[dH]G[dK]H[Dap]K(FITC)-NH2
modifications: linker N-4-10 via trimesoyl″
B26: C1-22 (peptide)
peptide: [Nle]F[dS]KY[dF]G[dK]H[Dap]K(FITC′)-NH2
modifications: linker (positions not given here) via trimesoyl″; not fully specified (N-terminus, bridges)
B27: C1-24 (peptide)
peptide: [Nle][Phe(4-Cl)][dS]KY[dF]G[dK]H[Dap]K(FITC)-NH2
modifications: linker N-4-10 via trimesoyl″

Columns and labels:
[1] = target: T1, Recombinant TNFα containing an N-terminal 13-aa ybbR tag (human, UniProt P01375 77-233, biotin at the ybbR tag in the ELISA assays); assay: FA, FITC-peptide + TNFα titration
T1 construct: Expressed in E. coli; Same construct used unlabelled (FA) and biotinylated on NeutrAvidin (ELISA); also called tumor necrosis factor-alpha; human TNFα; not shown: N-terminal 13-aa ybbR tag
T1 sequence (P01375 77-233): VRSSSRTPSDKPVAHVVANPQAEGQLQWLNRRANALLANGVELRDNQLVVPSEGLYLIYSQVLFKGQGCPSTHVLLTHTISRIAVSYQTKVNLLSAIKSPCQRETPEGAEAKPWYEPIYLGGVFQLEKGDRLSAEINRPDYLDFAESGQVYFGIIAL
Protocol: (§1) The FA values were measured on a Molecular Devices Spectramax M5 spectrofluorimeter, with excitation and emission wavelengths at 485 and 525 nm, respectively. Equilibrium dissociation constants (KD) were determined by plotting the FA values as a function of TNFα concentration and fitting the data to the following equation $$Y = \frac{\left(Amin + \left(Amax \times \frac{Q_b}{Q_f} - Amin\right)\left(\frac{(L+x+K_d) - \sqrt{((L+x+K_d)^2 - 4Lx)}}{2L}\right)\right)}{\left(1 + \left(\frac{Q_b}{Q_f} - 1\right)\left(\frac{(L+x+K_d) - \sqrt{((L+x+K_d)^2 - 4Lx)}}{2L}\right)\right)}$$
(§2) where Y is the measured anisotropy at a given TNFα concentration x; L is the bicyclic peptide concentration; Qb/Qf is the correction fact for dye-protein interaction; Amax is the maximum anisotropy when all the peptides are bound to TNFα, while $Amin$ is the minimum anisotropy. […] The FA values were plotted against the competitor peptide concentration to determine the IC$50$ values.

[2] = target: T1, Recombinant TNFα containing an …; assay: FA, FITC-peptide + TNFα titration; remark: listed apart in the source
Protocol: as §1, §2

Row | Binder | Kd [1] [µM] | Kd [2] [µM]
1 | B1 | 0.8 | –
2 | B2 | 1.7 | –
3 | B3 | 3.2 | –
4 | B4 | 2.2 | –
5 | B5 | 2.9 | –
6 | B6 | 2.7 | –
7 | B7 | 1.8 | –
8 | B8 | 2.4 | –
9 | B9 | 6.8 | –
10 | B10 | 3.5 | –
11 | B11 | – | 1.2
12 | B12 | – | 4.1
13 | B13 | – | 1.3
14 | B14 | – | 1.7
15 | B15 | 5.9 | –
16 | B16 | 1.4 | –
17 | B17 | – | 1.3
18 | B18 | – | 2.5
19 | B19 | – | 3.7
20 | B20 | – | 2.1
21 | B21 | 2 | –
22 | B22 | – | 2
23 | B23 | – | 4.3
24 | B24 | 1.4 | –
25 | B25 | – | 0.43
26 | B26 | – | 1.7
27 | B27 | – | 4.8

— patent publication US10913773B2, “Bicyclic peptidyl inhibitor of tumor necrosis factor-alpha” (Ohio State Innovation Foundation, priority 2016, dated 2021)
